According to the RNAGym collection of RNA variant scans (doi:10.7554/elife.80360):

B1: HDV Ribozyme (parent)
chain: GGCCGGCAUGGUCCCAGCCUCCUCGCUGGCGCCGGCUGGGCAACAUUCCGAGGGGACCGUCCCCUCGGUAAUGGCGAAUGGGACCCA

Variants of: B1
Test: self-cleavage, relative activity (ratio to wild type); higher = more cleavage; co-transcriptional
In the case of C18G G74A, the self-cleavage is reported as 0.0449. C18G G74C gave a self-cleavage of 0.142. G17C U69A showed a self-cleavage of 0.453. Work on G17C U69C yielded a self-cleavage of 0.269. Variant G17C U69G has a self-cleavage of 0.317. C18A G82U showed a self-cleavage of 0.0723. In the case of C18A C49U, the self-cleavage is reported as 0.133. Variant G17U G39C has a self-cleavage of 0.0755. For G17U G39U, the self-cleavage was 0.126. Variant C18G A45U has a self-cleavage of 0.217. C18G A45C showed a self-cleavage of 0. Work on G17U C66G yielded a self-cleavage of 0.464. Work on G17U C66A yielded a self-cleavage of 0.684. G17U C66U showed a self-cleavage of 0.469. Work on C18G G67C yielded a self-cleavage of 0.203. In the case of C18G G67U, the self-cleavage is reported as 0.101. C18A A71G showed a self-cleavage of 0.0739. C18A A71C gave a self-cleavage of 0.0504. G17U A78U showed a self-cleavage of 0.0739. Work on G17U A78C yielded a self-cleavage of 0.131. For C18A C84G, the self-cleavage was 0.0437. For C18A C84A, the self-cleavage was 0.151. Work on C18A A77G yielded a self-cleavage of 0.0354. Variant C18A A78G has a self-cleavage of 0.131. C18A A78C gave a self-cleavage of 0.0978. Work on C18G C61A yielded a self-cleavage of 0.222. Variant C18G C61G has a self-cleavage of 0.219. G17C G74C gave a self-cleavage of 0. With C18A C19U the self-cleavage was 0.0339. Work on C18G C19A yielded a self-cleavage of 0.119. C18A C63A showed a self-cleavage of 0.0692. For C18A C63U, the self-cleavage was 0.145. For C18A C48A, the self-cleavage was 0.0369. C18A G35U showed a self-cleavage of 0.0604. C18A G35C showed a self-cleavage of 0.147. Variant C18G C30G has a self-cleavage of 0.222. Variant C18A G59A has a self-cleavage of 0.228. In the case of C18A G59U, the self-cleavage is reported as 0.113. Variant G17U G80A has a self-cleavage of 0.272. With G17U G80U the self-cleavage was 0.156. G17U G80C gave a self-cleavage of 0.102. Variant G17U C84U has a self-cleavage of 0.487. In the case of G17U C84A, the self-cleavage is reported as 0.445. G17U G67C showed a self-cleavage of 0.628. Work on G17U G67U yielded a self-cleavage of 0.609. Variant C18G A43G has a self-cleavage of 0.145. C18G A43C showed a self-cleavage of 0.332. In the case of G17U C62A, the self-cleavage is reported as 0.429. Work on C18A U79G yielded a self-cleavage of 0.0639. C18A U79C showed a self-cleavage of 0.117. In the case of C18A U79A, the self-cleavage is reported as 0.138. For G17U C44U, the self-cleavage was 0.146. Variant G17U C44A has a self-cleavage of 0.323. Work on G17U C44G yielded a self-cleavage of 0.222. C18G C22A gave a self-cleavage of 0.172. Work on C18A G68C yielded a self-cleavage of 0.212. With C18A G68A the self-cleavage was 0.237. In the case of G17U C63G, the self-cleavage is reported as 0.509. G17U G35C gave a self-cleavage of 0.125. Variant G17U G35A has a self-cleavage of 0.133. Work on G17U G35U yielded a self-cleavage of 0.198. Variant G17C G81U has a self-cleavage of 0.193. C18G U60G showed a self-cleavage of 0.0791. Variant C18G C62A has a self-cleavage of 0.113. C18A C41A gave a self-cleavage of 0.125. In the case of C18A C41G, the self-cleavage is reported as 0.0554. Variant C18G U72G has a self-cleavage of 0. Work on C18G U72C yielded a self-cleavage of 0. In the case of G17U U20G, the self-cleavage is reported as 0. Variant G17U U72A has a self-cleavage of 0.119. In the case of C18A A43G, the self-cleavage is reported as 0.192. In the case of C18A A43U, the self-cleavage is reported as 0.0339. C18A A43C showed a self-cleavage of 0.0462. Work on G17U G52A yielded a self-cleavage of 0.509. With G17U G52C the self-cleavage was 0.591. Variant G17U G40A has a self-cleavage of 0.246. For C18G C64A, the self-cleavage was 0. In the case of C18A G73U, the self-cleavage is reported as 0.0941. Work on C18G G35A yielded a self-cleavage of 0.156. Variant C18G G35U has a self-cleavage of 0.0415. In the case of G17U A70C, the self-cleavage is reported as 0.246. Variant C18G C44U has a self-cleavage of 0.0426. Variant C18G C44A has a self-cleavage of 0. In the case of C18A G53A, the self-cleavage is reported as 0.0652. For C18A U72C, the self-cleavage was 0.0437. For C18A U72G, the self-cleavage was 0.19. In the case of C18A C64U, the self-cleavage is reported as 0.256. Work on C18A C64G yielded a self-cleavage of 0.0678. C18A C75U gave a self-cleavage of 0.0665. Work on C18G A51C yielded a self-cleavage of 0.208. C18G A51G showed a self-cleavage of 0. Variant C18G A51U has a self-cleavage of 0.0489. In the case of G17U G50A, the self-cleavage is reported as 0.466. With C18A A83C the self-cleavage was 0.0831. Work on C18A A83U yielded a self-cleavage of 0.237. Work on C18G G55U yielded a self-cleavage of 0.0811. Variant C18G C84A has a self-cleavage of 0.095. Work on G17U C57U yielded a self-cleavage of 0.415. With G17U C57G the self-cleavage was 0.464. With G17U C32U the self-cleavage was 0.125. In the case of C18G U79G, the self-cleavage is reported as 0.133. In the case of G17C G82A, the self-cleavage is reported as 0.147. G17C G82U gave a self-cleavage of 0. In the case of G17U G29C, the self-cleavage is reported as 0.0773. G17U G29U gave a self-cleavage of 0.0554. With G17C U65C the self-cleavage was 0.529. C18G C58A showed a self-cleavage of 0.0573. In the case of C18A G81C, the self-cleavage is reported as 0.163. Work on C18A G81A yielded a self-cleavage of 0.0755. In the case of C18A G81U, the self-cleavage is reported as 0.0817. For G17U A43U, the self-cleavage was 0.185. Work on G17U A43C yielded a self-cleavage of 0.203. In the case of C18G A42C, the self-cleavage is reported as 0. C18G A42U gave a self-cleavage of 0.138. C18G A42G showed a self-cleavage of 0.115. Work on C18G A77U yielded a self-cleavage of 0. Work on G17U A42U yielded a self-cleavage of 0.089. In the case of G17U A42G, the self-cleavage is reported as 0.0489. In the case of G17U A42C, the self-cleavage is reported as 0.125. C18G A70U showed a self-cleavage of 0.111. Work on C18G A70G yielded a self-cleavage of 0.161. Work on C18G G80A yielded a self-cleavage of 0.0563. For C18G G80U, the self-cleavage was 0.0621. Variant C18G C41A has a self-cleavage of 0.196. Variant C18G U37A has a self-cleavage of 0.111. With C18A U60A the self-cleavage was 0.135. With C18A U60C the self-cleavage was 0. C18A U60G showed a self-cleavage of 0. For C18G U65C, the self-cleavage was 0.175. For G17U G28U, the self-cleavage was 0.0923. Work on C18A C86G yielded a self-cleavage of 0.185. Work on C18A U20G yielded a self-cleavage of 0.249. In the case of C18A U20C, the self-cleavage is reported as 0. With C18G C32A the self-cleavage was 0.166. Variant C18G C32U has a self-cleavage of 0.172. Work on C18G C86G yielded a self-cleavage of 0.0831. Variant C18A C44G has a self-cleavage of 0.193. With C18A C44A the self-cleavage was 0.17. C18A C44U gave a self-cleavage of 0.219. With G17C U27A the self-cleavage was 0.222. With C18G G34C the self-cleavage was 0.104. In the case of C18G G34U, the self-cleavage is reported as 0. With C18A U27A the self-cleavage was 0.131. Work on G17U A71C yielded a self-cleavage of 0.383. For C18A A45G, the self-cleavage was 0.0594. With C18A A45U the self-cleavage was 0.172. For G17U, the self-cleavage was 0.548. G17C U79G gave a self-cleavage of 0.128. Variant G17C U79A has a self-cleavage of 0.26. For G17C U79C, the self-cleavage was 0.427. With C18G G52A the self-cleavage was 0.156. Variant C18G U46A has a self-cleavage of 0.145. For C18G U46G, the self-cleavage was 0.0692. Work on G17U C22U yielded a self-cleavage of 0.0959. For G17U C22G, the self-cleavage was 0.095. Work on G17C U72A yielded a self-cleavage of 0. For G17C U72G, the self-cleavage was 0.161. For G17C U72C, the self-cleavage was 0. C18A C57G showed a self-cleavage of 0.208. C18A C57A showed a self-cleavage of 0.219. For C18G G25A, the self-cleavage was 0.0504. With C18G G25C the self-cleavage was 0.222. Variant C18A C33A has a self-cleavage of 0.121. C18A U46G gave a self-cleavage of 0.128. Variant C18A U46C has a self-cleavage of 0.095. For G17C G80C, the self-cleavage was 0.0906. G17C U46C gave a self-cleavage of 0.0791.
